Reference: US20210113649A1 (UNIVERSITY OF FLORIDA RESEARCH FOUNDATION, published 2021)

Tests used:
[1] = biological target: T1, GFP-DAXX S671A (human, UniProt Q9UER7 1-740); experiment: anti-FLAG IP of 293T cells cotransfected with GFP-DAXX constructs and FLAG-SREBP2 (FIG. 6A)
T1 construct: also called S671A mutant; not shown: GFP from the pEGFP-C2 vector
Description: (§1) FIGS. 6A to 6H show mutation of DAXX phosphorylation sites disrupts DAXX-SREBP2 interaction, impairs lipogenesis and tumor growth. […] The GFP-wt DAXX was transfected alone in the absence of FLAG-SREBP2 as a control (lane 7). The lysates of transfected cells were subjected to IP with an anti-FLAG antibody, Both DAXX and FLAG-SREBP2 were detected in immunoprecipitates and input lysates. […] The precipitated DNAs were subjected to qPCR with primers specific to promoter regions of the indicated genes. qPCRs for the 3′ UTR of the FASN and ACACA genes serve as negative control. […] ATRX qRT-PCR serves as a control for genes not regulated by SREBPs. […] Cells were serum-starved for 24 h. DMSO or a mTOR inhibitor (0.1 μM final concentration) was added for 5 h before cell lysis. […] RNAs were isolated from cells cultured in serum-free DMEM for 24 h as in FIG. 6D.

[2] = biological target: T2, GFP-DAXX S668A/S671A (human, UniProt Q9UER7 1-740); experiment: as above
T2 construct: also called S668A/S671A mutant; not shown: GFP from the pEGFP-C2 vector
T2 sequence (Q9UER7 whole entry S668A/S671A): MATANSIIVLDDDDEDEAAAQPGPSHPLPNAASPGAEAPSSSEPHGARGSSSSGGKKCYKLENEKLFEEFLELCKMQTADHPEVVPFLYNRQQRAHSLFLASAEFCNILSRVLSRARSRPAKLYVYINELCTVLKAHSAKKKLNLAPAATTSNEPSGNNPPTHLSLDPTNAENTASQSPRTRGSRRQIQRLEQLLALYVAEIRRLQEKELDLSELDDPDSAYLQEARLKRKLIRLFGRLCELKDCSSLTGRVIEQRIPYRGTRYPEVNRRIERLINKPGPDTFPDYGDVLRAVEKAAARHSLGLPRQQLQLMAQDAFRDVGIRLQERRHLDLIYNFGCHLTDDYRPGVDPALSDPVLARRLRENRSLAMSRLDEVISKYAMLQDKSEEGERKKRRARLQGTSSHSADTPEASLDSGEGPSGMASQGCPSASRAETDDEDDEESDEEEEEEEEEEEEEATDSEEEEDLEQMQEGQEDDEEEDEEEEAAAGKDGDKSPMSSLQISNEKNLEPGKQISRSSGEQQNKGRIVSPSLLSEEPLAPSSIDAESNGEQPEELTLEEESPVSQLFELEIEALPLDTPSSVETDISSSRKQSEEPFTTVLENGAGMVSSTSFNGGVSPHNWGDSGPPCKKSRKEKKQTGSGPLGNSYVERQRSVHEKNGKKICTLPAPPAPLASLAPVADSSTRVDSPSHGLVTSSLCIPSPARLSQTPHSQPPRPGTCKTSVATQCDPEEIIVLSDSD
Description: as §1

[3] = biological target: T3, GFP-DAXX S495A (human, UniProt Q9UER7 1-740); experiment: as above
T3 construct: also called S495A mutant; not shown: GFP from the pEGFP-C2 vector
T3 sequence (Q9UER7 whole entry S495A): as the sequence (Q9UER7 whole entry S668A/S671A) above, with S495A, A668S, A671S counted along it
Description: as §1

[4] = biological target: T4, GFP-DAXX S690A (human, UniProt Q9UER7 1-740); experiment: as above
T4 construct: also called S690A mutant; not shown: GFP from the pEGFP-C2 vector
T4 sequence (Q9UER7 whole entry S690A): as the sequence (Q9UER7 whole entry S668A/S671A) above, with A668S, A671S, S690A counted along it
Description: as §1

[5] = biological target: T5, DAXX (death domain-associated protein), endogenous (human, UniProt Q9UER7 1-740); experiment: IP of MDA-MB-231 or PC3 cell extracts with an anti-DAXX mAb, immunoblot for SREBP2 (M, mature)
T5 construct: Endogenous protein pulled down with an anti-DAXX mAb or co-precipitated with FLAG-SREBP2; also called endogenous DAXX
T5 sequence (Q9UER7 whole entry, the tested form may be a part): as the sequence (Q9UER7 whole entry S668A/S671A) above, with A668S, A671S counted along it
Description: FIGS. 2A to 2E show DAXX binds to SREBP2. […] MDA-MB-231 or PC3 cell extracts were subjected to IP with a control (IgG) or an anti-DAXX monoclonal antibody. The immunoprecipitated SREBP2 was detected. P, precursor; M, mature SREBP2. FIGS. 2B, 2C, and 2D show there are two independent binding sites in DAXX for mature SREBP2. […] The cell lysates were subjected to FLAG IP. […] HC: IgG heavy chain. *: non-specific band. FIG. 2E is a schematic drawing of DAXX-SREBP2 interactions. The two independent SREBP2-binding sites are depicted. Also shown is the sequence of aa 327-335 within the DAXX HBD critical for the DAXX-SREBP2 interactions. SIM: SUMO-interacting motif; DHB: DAXX helical bundle; HBD: histone-binding domain; PEST: proline, glutamic acid, serine, and threonine-rich sequence. Numbers refer to aa residue positions in the DAXX protein. Note that the irrelevant lanes in the same blots (between the input and IP samples in the PC3 blot in panel A, between lanes 4 and 5, and lanes 12 and 13 in panel B, and between lanes 1 and 2 in panel D) are left out.
Immunoprecipitation (IP) of total cell extracts with anti-DAXX antibody evidenced co-precipitation of two SREBP2 proteins (FIG. 2A) that correspond to the precursor (P) and the mature (M) forms of SREBP2. […]

T1 sequence (Q9UER7 whole entry S671A): as the sequence (Q9UER7 whole entry S668A/S671A) above, with A668S counted along it

binding result [1] | binding result [2] | binding result [3] | binding result [4] | Binder | binding result [5]
no binding | no binding | no binding | no binding | FLAG-SREBP2 (mature) (other, UniProt Q12772 1-481, looked up, domain: mature form; also called mature SREBP2 (Plasmid #26807); not shown: FLAG tag) MDDSGELGGLETMETLTELGDELTLGDIDEMLQFVSNQVGEFPDLFSEQLCSSFPGSGGSGSSSGSSGSSSSSSNGRGSSSGAVDPSVQRSFTQVTLPSFSPSAASPQAPTLQVKVSPTSVPTTPRATPILQPRPQPQPQPQTQLQQQTVMITPTFSTTPQTRIIQQPLIYQNAATSFQVLQPQVQSLVTSSQVQPVTIQQQVQTVQAQRVLTQTANGTLQTLAPATVQTVAAPQVQQVPVLVQPQIIKTDSLVLTTLKTDGSPVMAAVQNPALTALTTPIQTAALQVPTLVGSSGTILTTMPVMMGQEKVPIKQVPGGVKQLEPPKEGERRTTHNIIEKRYRSSINDKIIELKDLVMGTDAKMHKSGVLRKAIDYIKYLQQVNHKLRQENMVLKLANQKNKLLKGIDLGSLVDNEVDLKIEDFNQNVLLMSPPASDSGSQAGFSPYSIDSEPGSPLLDDAKVKDEPDSPPVALGMVDRSR | 
 |  |  |  | SREBP2 mature form, endogenous (other, human, UniProt Q12772 1-484, looked up, domain: mature form (N-terminal domain released by cleavage); also called mature SREBP2) MDDSGELGGLETMETLTELGDELTLGDIDEMLQFVSNQVGEFPDLFSEQLCSSFPGSGGSGSSSGSSGSSSSSSNGRGSSSGAVDPSVQRSFTQVTLPSFSPSAASPQAPTLQVKVSPTSVPTTPRATPILQPRPQPQPQPQTQLQQQTVMITPTFSTTPQTRIIQQPLIYQNAATSFQVLQPQVQSLVTSSQVQPVTIQQQVQTVQAQRVLTQTANGTLQTLAPATVQTVAAPQVQQVPVLVQPQIIKTDSLVLTTLKTDGSPVMAAVQNPALTALTTPIQTAALQVPTLVGSSGTILTTMPVMMGQEKVPIKQVPGGVKQLEPPKEGERRTTHNIIEKRYRSSINDKIIELKDLVMGTDAKMHKSGVLRKAIDYIKYLQQVNHKLRQENMVLKLANQKNKLLKGIDLGSLVDNEVDLKIEDFNQNVLLMSPPASDSGSQAGFSPYSIDSEPGSPLLDDAKVKDEPDSPPVALGMVDRSRILL | binds
